± gives the standard error. Fewer inactive variants are shown than the library holds.
B1: glmS ribozyme (parent)
chain: AUAAAAGCGCCAGAACUACAGAAAUGUAGUUGACGAGGAGGAGGUUUAUCGAAUUUUCGGCGGAUGCCUCCAAA

Assays:
Details in all cases: with glucosamine-6-phosphate
glucosamine-6-phosphate [1] = variants of: B1; experiment: self-cleavage kobs at 640 uM GlcN6P; higher = faster cleavage; RNA array
Outline: (§1)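 Weighted Michaelis–Menten fits across concentrations supplied kcat and KM, based on kobs from one- or two-exponential decay fits to normalised per-tile medians. The data came from barcoded ribozyme variants transcribed in situ by E. coli RNA polymerase on sequenced MiSeq chips and tracked at 37 °C by a hybridised Cy3 probe. Glucosamine-6-phosphate (40 μM to 10 mM) in HEPES/KCl/Mg(OAc)2 buffer was flowed in.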

glucosamine-6-phosphate [2] = variants of: B1; experiment: self-cleavage kobs at 10000 uM GlcN6P; higher = faster cleavage; RNA array
Outline: as §1

glucosamine-6-phosphate [3] = variants of: B1; experiment: self-cleavage kobs at 2500 uM GlcN6P; higher = faster cleavage; RNA array
Outline: as §1

AUAAAAGCGCCAGAACUACAGAAAUGUAGUUGACGAGCAGGAGGAUUAUCGAAUUUUCGGCGGAUGCCUGCAAA [G38C U45A C70G]
self-cleavage kobs at 640 uM GlcN6P (glucosamine-6-phosphate [1]): < 1e-05 s⁻¹
self-cleavage kobs at 10000 uM GlcN6P (glucosamine-6-phosphate [2]): < 1e-05 s⁻¹

AUAAAAGUGCCAGAACUACAGAAAUGUAGACGACGAGGAGGAGGUUUUUCGAAUUUUCGGCGGAUGCUUCCAAA [C8U U30A U31C A48U C68U]
self-cleavage kobs at 640 uM GlcN6P (glucosamine-6-phosphate [1]): < 1e-05 s⁻¹
self-cleavage kobs at 2500 uM GlcN6P (glucosamine-6-phosphate [3]): < 1e-05 s⁻¹

AUAAAAGGGCCAGAAGUACAGAAAUGUAGUUGACGAGAAGGAGGUUUAUCGAAUUUUCGGCGGAUGCCUCCAAA [C8G C16G G38A]
self-cleavage kobs at 640 uM GlcN6P (glucosamine-6-phosphate [1]): < 1e-05 s⁻¹

AUAAAAGCGCCAGAACUACAGAAAUGUAGUUGCCGAGGAGGAGGUUUAUCGAGUUUUCGGCGGAUGCCUCCAAA [A33C A53G]
self-cleavage kobs at 640 uM GlcN6P (glucosamine-6-phosphate [1]): 3.89e-05 ± 1.4e-05 s⁻¹
self-cleavage kobs at 2500 uM GlcN6P (glucosamine-6-phosphate [3]): 7.39e-05 ± 1.3e-05 s⁻¹
self-cleavage kobs at 10000 uM GlcN6P (glucosamine-6-phosphate [2]): 0.000235 ± 3.8e-05 s⁻¹

AUAAAGUCGCCAGAACUACAGAAAUGUAGUCGACGCGGAGGAGGUUUAUCGAAUUUUCGGCGGAUGCCUCCAAA [A6G G7U U31C A36C]
self-cleavage kobs at 640 uM GlcN6P (glucosamine-6-phosphate [1]): < 1e-05 s⁻¹
self-cleavage kobs at 2500 uM GlcN6P (glucosamine-6-phosphate [3]): < 1e-05 s⁻¹

AUAAAAGCGCCAGUACUACAGAAAUGUAGUCGACGAGGCGGAGGUUUAUCGAAUUUUCGGCGGAUGCCUCCAAA [A14U U31C A39C]
self-cleavage kobs at 640 uM GlcN6P (glucosamine-6-phosphate [1]): 7.42e-05 ± 1.4e-05 s⁻¹
self-cleavage kobs at 2500 uM GlcN6P (glucosamine-6-phosphate [3]): 0.000324 ± 6.8e-05 s⁻¹
self-cleavage kobs at 10000 uM GlcN6P (glucosamine-6-phosphate [2]): 0.000464 ± 6e-05 s⁻¹

AUAAAAGCGCCAGAACUACAGAAAUGUAGUUGACGAGGAGGAGAUUGAUCGAAUUUUCGGCGGAUGCCUCCAAA [G44A U47G]
self-cleavage kobs at 640 uM GlcN6P (glucosamine-6-phosphate [1]): 5.51e-05 ± 2.3e-05 s⁻¹
self-cleavage kobs at 2500 uM GlcN6P (glucosamine-6-phosphate [3]): 0.00011 ± 3.2e-05 s⁻¹
self-cleavage kobs at 10000 uM GlcN6P (glucosamine-6-phosphate [2]): 0.000111 ± 2.2e-05 s⁻¹

AUAAAAUCGCCAGAACUACAGAAAUGUAGUUGACGAGGCGGCGGUUUAUCGAAUUUUCGGCGGAUGCCUCCAAA [G7U A39C A42C]
self-cleavage kobs at 640 uM GlcN6P (glucosamine-6-phosphate [1]): < 1e-05 s⁻¹
self-cleavage kobs at 2500 uM GlcN6P (glucosamine-6-phosphate [3]): < 1e-05 s⁻¹

AUAAAAGCGCCAGAACUACAGAAAUGUAGUUGACGAGGAGGAUGUUUAUCGAAUUUUCGGCCGAUGACUCCAAA [G43U G62C C67A]
self-cleavage kobs at 640 uM GlcN6P (glucosamine-6-phosphate [1]): < 1e-05 s⁻¹
self-cleavage kobs at 2500 uM GlcN6P (glucosamine-6-phosphate [3]): < 1e-05 s⁻¹
self-cleavage kobs at 10000 uM GlcN6P (glucosamine-6-phosphate [2]): < 1e-05 s⁻¹

AUAAAAGCGCCAGAACUACAGAAAUGUAGUAGACGAGGAGGAGGUUUAUCGAAAUUUCGGCGGAUGCAUCCAAA [U31A U54A C68A]
self-cleavage kobs at 640 uM GlcN6P (glucosamine-6-phosphate [1]): 6.98e-05 ± 2.6e-05 s⁻¹

AUAAAAGCGCCAGAACUACAGAAAUGUAGUUCACUAGGAGGAGGUUUAUCGGAUUUUCGGCGGAUGCCUCCAAA [G32C G35U A52G]
self-cleavage kobs at 640 uM GlcN6P (glucosamine-6-phosphate [1]): < 1e-05 s⁻¹
self-cleavage kobs at 2500 uM GlcN6P (glucosamine-6-phosphate [3]): < 1e-05 s⁻¹

AUAAAAGCGCCAGAACUACAGAAAUGUAGUUGACGAGCAGGAGGUUUCUCGAAUUUUCGGCGGAUGCCUCCAAA [G38C A48C]
self-cleavage kobs at 640 uM GlcN6P (glucosamine-6-phosphate [1]): < 1e-05 s⁻¹
self-cleavage kobs at 2500 uM GlcN6P (glucosamine-6-phosphate [3]): < 1e-05 s⁻¹
self-cleavage kobs at 10000 uM GlcN6P (glucosamine-6-phosphate [2]): < 1e-05 s⁻¹

AUAAAAGCGCGAGAACUACAGAAAUGUAGUUGACGAGGCGGAGGUUUAUCGAAUUUUCGGCGGAUGCCUCCAAA [C11G A39C]
self-cleavage kobs at 640 uM GlcN6P (glucosamine-6-phosphate [1]): < 1e-05 s⁻¹
self-cleavage kobs at 2500 uM GlcN6P (glucosamine-6-phosphate [3]): < 1e-05 s⁻¹
self-cleavage kobs at 10000 uM GlcN6P (glucosamine-6-phosphate [2]): < 1e-05 s⁻¹

AUAAAAGCGCCAUAACUACAGAAAUGUAGUUGACGAGGAGGAGGUUUAUGGAAUUUUCGGCGGAUGGCUCCAAA [G13U C50G C67G]
self-cleavage kobs at 640 uM GlcN6P (glucosamine-6-phosphate [1]): 0.000305 ± 0.00014 s⁻¹
self-cleavage kobs at 2500 uM GlcN6P (glucosamine-6-phosphate [3]): 7.52e-05 ± 1.5e-05 s⁻¹

AUAAAAGGGCCAGAACUACAGAAAUGUAGUUGACGAGUAGGAGGUUUAUCGAAUUUUCGGCGGAUGCAUCCAAA [C8G G38U C68A]
self-cleavage kobs at 640 uM GlcN6P (glucosamine-6-phosphate [1]): < 1e-05 s⁻¹

AUAAAAGCGCCAGAACUACAGAAAUGUAGGUGACGAGGAGGAGGUUAAUCGAAUUUUCGUCGGAUGCCUCCAAA [U30G U47A G60U]
self-cleavage kobs at 640 uM GlcN6P (glucosamine-6-phosphate [1]): < 1e-05 s⁻¹

AUAAAAGCGCCACAACUACAGAAAUGUAGUUGACGAGGAGGUGGUUUAUCGAAUUUACGGCGCAUGCCUCCAAA [G13C A42U U57A G63C]
self-cleavage kobs at 640 uM GlcN6P (glucosamine-6-phosphate [1]): < 1e-05 s⁻¹
self-cleavage kobs at 2500 uM GlcN6P (glucosamine-6-phosphate [3]): < 1e-05 s⁻¹

AUAAAAGCGCCGGAACUACAGAAAUGUAGUUGACGUGGAGGAGGUUUAUCGAAUUUUCGGCGGAUGCCUCCAAA [A12G A36U]
self-cleavage kobs at 640 uM GlcN6P (glucosamine-6-phosphate [1]): < 1e-05 s⁻¹

— the supplement of paper PMC7125110
